Reference: a protein production outcome set (Wang et al. 2014)

assay: label from the status in PepcDB records

Sequence	protein production
MMTLSDLPSDLAEEVLSKIPVTSLRGVRATCKKWNTLSKDRSFTRKHLAQAKAAAAREFMVVMVMDFQVYLMGINLHKDVDATINGQGKLISLDDSNQVDISYVYHCDSLVLCIPKDCARLVVWNPYWGQTLWFKPTSLRHFPHWYMYAIGYQMRRGNRDAKTSRWLLTCRPTTKTITKNTIDHL	failed
MMTPEQIATVMTGKVEAAGKGRHEAVLASPMIQNHAPFLHLADDGALICAWFGGTLEGKSDISIFTSVLAAGSNKWGEPQRLSFDPDHSEQNPVLFAAPGNTLLLFHTSQPSGNQDECRIRMAEVSRDASDPTRLTAGEGLYLDLPRGCFVRAPLTVRADGAWLLPIFRCIQRPGQKWNGSHDRAAVGISEDCGKSWRLEDIDQSTGCVHMSPLVIGDEKLAAVFRRRQADFVYRTESADGGRTWSAPQATDVPNNNSSIAAIRLNDGRIAMICNPTNAAMSSDRRASLYDELGEDDDRPDANPDGGCVPIWGVPRAPVTVCISEDGAKSFPQRITIEDGPGTCLSNNSIDGHNKEMSYPWLLEGADGSLHIAYTYYRRAIKYVRLAPGWARAADGR	failed
MMTRNKEFPMQMQSVTPARLVTTGLAFGESPRWHGGRLWVCNWGTSEIIATDAHGNREIMLIVPAVLPYSIDWLQDGRLLVVSGREGLLLRQEVDGKLVTHADLRGLSKSPWNEIVVDGRGNIYVNGGGPAPAAGEYFGPGTVVLITADGAVRQVADDIAFANGMAVTPDNKTLILAESHGNRLTAFDIAADGSLSNRRAWADLDGYPDGICLDAEGAVWYADVPNKHCVRVREGGEVLQTVTVDRGCFACMLGGADRRTLFIVAAEWRGFEHMVGDARTGQVLSVDAPAPGVGWP	failed
MMTTLQILFWLSLFLVFYTHLGYGILLYMLVKLKELFVKPVRRQLPPDKRLPDVTLFITAFNEEEVVDEKMRNCLGLDYPADKLHIVWTTDGSNDSTNQRLEDWPQATVHFQPLRQGKTAAMTRGMMLVDTPLVVFTDANTMLNREAIREIVRAFEDPKVGCVAGEKRIAVQEKDGAAAGGEGIYWKYESTLKALDARLYSAVGAAGELFAVRRELFTVMEPDTLLDDFILSLRIAMQGYKIAYCTQAYAIESGSADIREEQKRKVRIAAGGLQSIWRLRELLNPFRYGVLTFQYVSHRVLRWSLAPVLLFALLPLNIAILLAGGSPVCYGTILALQLLFYIMGGWGYYLSTRQVKNKLLFIPYYFLFMNINVMKGVNYLRKKKGTGAWEKAKRTKTESLNQ	failed
MMTTRNGSLRFFNHTFSFYDEATCVVREEELQRELMPRHVSFILDGNRRWAKRDGLTTAQGHEAGTKRIIEIAERIGEETRKEVRVSVIGNKTKIPESLLKEIHEIEEATKATRISISSWQ	failed
MMVDTGVDHRAVSSHDGPDAGRRVFGAADPRFACVVRAFASMFPGRRFGGGALAVYLDGQPVVDVWKGWADRAGWVPWSADSAPMVFSATKGMTATVIHRLADRGLIDYEAPVAEYWPAFGANGKATLTVRDVMRHQAGLSGLRGATQQDLLDHVVMEERLAAAVPGRLLGKSAYHALTFGWLMSGLARAVTGKDMRLLFREELAEPLDTDGLHLGRPPADAPTRVAEIIMPQDIAANAVLTCAMRRLAHRFSGGFRSMYFPGAIAAVQGEAPLLDAEIPAANGVATARALARMYGAIANGGEIDGIRFLSRELVTGLTRNRRQVLPDRNLLVPLNFHLGYHGMPIGNVMPGFGHVGLGGSIGWTDPETGVAFALVHNRLLSPLVMTDHAGFVGIYHLIRQAAAQARKRGYQPVTPFGAPYSEPGAAAG	failed
MMVKDGLRYWPLGMAFLLGVGLQPVRAAEMFLPPTGLAQEELIALTEVDSLAQARLPQSEGSAIDLLPLPPQPTAAVDPPREAPASLPTTIEVKGDSPAPPVEPSPPTTDNSPGVPTTPQLAAEQAVQEARLALLREGDRYWQLGDLTTARTYYQKAKADLNVPPPHVIPPAVLEISQLPPAAQVYWREVQSGSQLYTAQAVPLQLLVEQFPEFIPAQVRFGEFLAQQGSLKEACAHLEKAASLYPDQPDIQRGLITLYDRQQQWLEAALAAQRFALLNPDHPATPEFEQLAAERMQRFRRRLQGQLREGMVVGALTGLVGVALTGNPLLSLDSIQMMTLMMQGESALGRSAARNISRQVKLLEDAAVQTYVNEVGQRLAKVAGRNEFAYEFFVIKDNDLNAFALPGGKIFVNSGAILKASTEAELAGLLAHEIAHTVLSHGFRLMTQGTATANLTRLLPAGGYVTGIVVTSYSREMEREADILGTQILARAGYAADGLLNLMHTLKKEYRNQEPPLPWFSTHPPTNERIRYIRGLMRDRGYTPFAFEGLERHQRIQAHLRTLVDPPNAPKSKRETAKTPQ	failed
MNAIGLVGFAFVGAAKAIEERYDVFGVTVVGVMTALGGGTTRDLLLNRVPNSLQSPGEVALSLLGVTAAVLFVHFLDDGHQHPVVLTADAIGLAAFTTTGALLGQQAGLPVFAVVALATVNAAGGGAISDLLLGRTPFILREDFYASCAVIGGLAFWALAQIGVSVSVASAGCALAVLLARGLGIGRGWSLPTVQAWERRDAQ	failed
MNAIREGVRALCAEFDAAYWRRIDEQRGFPEAFVKALTDAGWLSAMIPEEYGGSGLGLAEASVILEEVNRCGGNSGTVHGQMYNMFTLLRNGSEAQKRFYLPKLASGELRLQSMGVTEPTTGTDTTKIKTTAVRKGDRYVINGQKVWISRIQHSDLMILLARTTPLAEVKRKSEGMSIFLVDLREAIGKGLTVQPIANMVNHETNELFFDNLEIPADSLIGEEGKGFRYILDGLNAERTLIAAECIGDGRWFIDKASHYARDRVVFGRPIGQNQGVQFPIAEAHIEVEAADLMRWRACQEYDAGLNAGASANMAKYLAAKASWEAANACLQTHGGFGFACEYDVERKFRETRLYQVAPISTNLILSYVAEHLLELPRSF	failed
MNALGTKARVVGTGVLVLGLLSGCTTAAPSPSSPTPTQATPTQAASSNAGPGPASSAAVPAQQSAEAKLSPEAQIETDRLLILAAKANDAAKVRELIAAGGNVNAKDEIQDSAFLYAGAEGFNEVLQLTLAAGADVRSTNRYGGTALIPASEHGHTETVRILIAAGVPVDHVNNLGWTAMQEAILPNNGGPNQQDVVRQLLAAGATPDIRDPQGRTALQNAERLGFTEIAALIRNR	failed
MNALVLYFDGKCPFCAAEMRRLSEWDTQHQLAFVDIAQEGFDCSSLNVDLAALNRELHGRTSDGRLLVGIDCMIAAYTLAGHGWLVLPLRVPGLRRVLANLYRAFAGNRYTLSRWLGYGTATACDGDSCGTGNPFLSGKELTDAAEDRPARRDSRQLAVRWMYAAAIAHLLVGAAMPWAADATLFGTYHRIVEQSFWSGAAPAQARAQQVWWIALFGATLQCSAIWMLALVHLGNRTRHRMAWGWLLVGLLVWAPQDLLISLQAHVWPHVLVDAVALLTMIPPLLYLWRKDAA	failed
MNANQFLKAVSQLQGWRECAFLLALAERSFPNYALFADAVGLKTGGKMRQLLDLAWDMLQKDVADAAIPQLLSKLETLCPNVDEYDAYGVYPAFDFCQLLEQALLNRLNPNKHRATEASQLATRTVMDFVEMSEGEGMDENELVRVFEHHPLLKDDKLFQRDTVMALYYYRTPKEAFLAELRAGAANDGVSNLGISLEG	not failed
MNAPSLKEENALTITRVFDAPANLVFKVWTTPEHLARWWGPKGFTVPAITTDFREGGAWRGCIRSPEGQDYWAHGIYREIVAPSRIVLSFVWEEEGAIDTLITVTLEDVAGGTRLTFHQAPFTSAESRDSHAEGWSECMDRLVSYVAARKEEVQ	failed
MNARHARYPFLGDARDAVEEAGVDLARVVTEDDAVVERARERVVSALTDGTIGEPAATVSTRVEVLSYPVARVLVSIVDESVLVRKYATAEADAAYDRFTADESTDTDLKSVSDTTRVSRDTLLSEFDLRAHVHATPDAHTVDVPTYLLLASSLRDDDWRLVNRALDDGRVPVTDAELDTLIREAIRERVADGLPLSVPDQIADALDEPVAAIQDALADLDLTREIDTVVPELFPPCMKHLLDQVQRGDHLPHHARFAITSFLSNVGLSTDEIVDIYEVNPGFGEEMTRYQTDHIQGDSSPTEYTAPSCATMKAYGNCVNPDDLCDAINHPLSYYEVKLDDGDDDDLADWRDREDDDSPD	failed
MNARSGDNVVLAILLSLLALVLFDMMGLIIKYLSPRYGAAELSAYRNFFGVFPSVIALWSSPGWHRAGRPWRIRQWRLGLMRGVYVTFAQFLFYYSLGKLAFATASTITYANAVFMTALAVPLLGERVGLMRWAAVLLGFAGVLLVMKPGSDSFTPDALAPLGAAFLYALTGVSARQMDSAVPSALINLYSVVAALVGALALALLSGGFTPLAQWSDLGWIAAMGGFGGTAVLCLVASYRMTEQSNLAPFSYFGIPIAFVAGWLVFDETPWADLFPGAFFIAGGGLMIVWRERIRSRAGRRISN	failed
